# Results from patent publication US20200157236A1 (CELLDEX THERAPEUTICS, published 2020).
# Biological target: T1, purified ALK protein (BLitz, Table 20) (Homo sapiens (Human), UniProt Q9UM73 19-1038, limits assumed)
# T1 construct: also called purified ALK proteins
# Experiment: BLI (BLitz), mAb on Protein A tip, purified ALK in solution
# Protocol: Kinetic measurements of the monovalent affinity of the 96 humanized ALK antibody variants (Ab351-Ab446) were collected. Affinity ranking was performed using a BLitz® System (ForteBio, Menlo Park, Calif.). Humanized anti-ALK antibodies were immobilized at 0.5 mg/mL using Protein A tips. Once baseline stability was ensured, purified ALK proteins at 70 μg/mL were added. The resulting kinetic data were fit to a single binding site equation, from which the quoted monovalent KD values were derived.
# T1 sequence (Q9UM73 19-1038 limits assumed): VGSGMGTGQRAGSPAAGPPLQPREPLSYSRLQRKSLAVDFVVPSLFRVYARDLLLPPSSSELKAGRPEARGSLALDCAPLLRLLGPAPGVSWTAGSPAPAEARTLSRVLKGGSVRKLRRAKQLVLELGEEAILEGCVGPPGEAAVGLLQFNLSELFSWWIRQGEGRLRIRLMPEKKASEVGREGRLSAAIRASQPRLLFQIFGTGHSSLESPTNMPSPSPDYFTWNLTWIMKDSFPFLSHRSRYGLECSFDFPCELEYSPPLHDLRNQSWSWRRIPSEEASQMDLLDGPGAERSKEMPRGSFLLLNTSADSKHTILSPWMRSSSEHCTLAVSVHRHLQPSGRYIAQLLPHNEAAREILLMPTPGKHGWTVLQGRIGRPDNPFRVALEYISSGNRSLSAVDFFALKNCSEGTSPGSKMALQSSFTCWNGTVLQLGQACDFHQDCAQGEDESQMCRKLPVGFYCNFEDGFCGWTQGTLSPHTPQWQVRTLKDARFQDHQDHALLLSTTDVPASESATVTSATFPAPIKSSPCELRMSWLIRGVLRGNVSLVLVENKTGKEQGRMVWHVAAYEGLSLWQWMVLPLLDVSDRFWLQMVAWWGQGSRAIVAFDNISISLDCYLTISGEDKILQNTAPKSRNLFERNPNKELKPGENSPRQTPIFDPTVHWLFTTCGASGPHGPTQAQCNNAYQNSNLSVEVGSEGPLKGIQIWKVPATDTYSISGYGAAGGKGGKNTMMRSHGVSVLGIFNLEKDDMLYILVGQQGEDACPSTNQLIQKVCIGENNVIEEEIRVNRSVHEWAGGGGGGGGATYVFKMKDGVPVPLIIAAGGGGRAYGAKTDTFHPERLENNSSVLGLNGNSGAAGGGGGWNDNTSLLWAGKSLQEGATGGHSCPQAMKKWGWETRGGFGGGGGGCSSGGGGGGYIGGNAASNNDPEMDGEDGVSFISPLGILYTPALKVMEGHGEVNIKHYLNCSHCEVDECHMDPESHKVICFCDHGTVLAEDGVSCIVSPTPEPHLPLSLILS
row,Binder,Kd [nM]
1,"Ab398 (antibody, V domains shown, humanized) VH: EVQLVQSGAEVKKPGSSVKLSCKASGYTFSSYWMHWVKQAPGQGLEWIGYIKPSSGYTKYAQKFQGRVTLTADKSTSTAYMELSSLRSEDTAVYYCARDYYGSSSWFAYWGQGTLVTVSS VL: EIVMTQSPATLSTSPGERATLSCKASQNVGTNVAWYQQKPGQAPRALIYSASYRYSGVPARFSGSGSGTDFTLTISSVEPEDFAVYYCQQYNSYPYMYTFGQGTKLEIK",221
2,"Ab421 (antibody, V domains shown, humanized) VH: EVQLVQSGAEVKKPGSSVKVSCKASGYTFSSYWMHWVRQAPGQGLEWIGYIKPSSGYTKYNQKFKDKATLTADKSTSTAYMELSSLRSEDTAVYYCARDYYGSSSWFAYWGQGTLVTVSS VL: EIVMTQSQATLSTSPGERATLSCKASQNVGTNVAWYQQKPGQAPRALIYSASYRYSGVPARFSGSGSGTDFTLTISSVEPEDFAVYYCQQYNSYPYMYTFGQGTKLEIK",280
3,"Ab409 (antibody, V domains shown, humanized) VH: EVQLVQSGAEVKKPGSSVKVSCKASGYTFSSYWMHWVRQAPGQGLEWIGYIKPSSGYTKYNQKFKDKATLTADKSTSTAYMELSSLRSEDTAVYYCARDYYGSSSWFAYWGQGTLVTVSS VL: EIVMTQSQATMSTSVGERATLSCKASQNVGTNVAWYQQKPGQSPKALIYSASYRYSGVPARFSGSGSGTDFTLTISSVEPEDFAVYYCQQYNSYPYMYTFGQGTKLEIK",208
4,"Ab419 (antibody, V domains shown, humanized) VH: QVQLVQSGAEVAKPGSSVKLSCKASGYTFTSYWMHWVKQAPGQGLEWIGYIKPSSGYTKYNQKFKDKATLTADKSTSTAYMELSSLRSEDTAVYYCARDYYGSSSWFAYWGQGTLVTVSS VL: EIVMTQSQATLSTSPGERATLSCKASQNVGTNVAWYQQKPGQAPRALIYSASYRYSGVPARFSGSGSGTDFTLTISSVEPEDFAVYYCQQYNSYPYMYTFGQGTKLEIK",107
5,"Ab412 (antibody, V domains shown, humanized) VH: EVQLVQSGPEVKKPGTSVKLSCKASGYTFTSYWMHWVRQARGQRLEWIGYIKPSSGYTKYNQKFKDRATLTADKSTSTAYMELSSLRSEDTAVYYCARDYYGSSSWFAYWGQGTLVTVSS VL: EIVMTQSQATLSTSPGERATLSCKASQNVGTNVAWYQQKPGQAPRALIYSASYRYSGVPARFSGSGSGTDFTLTISSVEPEDFAVYYCQQYNSYPYMYTFGQGTKLEIK",111
6,"Ab399 (antibody, V domains shown, humanized) VH: QVQLVQSGAEVAKPGTSVKLSCKASGYTFTSYWMHWVKQAPGQGLEWIGYIKPSSGYTKYNQKFKDKVTLTADKSTSTAYMELSSLRSEDTAVYYCARDYYGSSSWFAYWGQGTLVTVSS VL: EIVMTQSQATMSTSVGERATLSCKASQNVGTNVAWYQQKPGQSPKALIYSASYRYSGVPARFSGSGSGTDFTLTISSVEPEDFAVYYCQQYNSYPYMYTFGQGTKLEIK",107
7,"Ab423 (antibody, V domains shown, humanized) VH: QVQLVQSGAEVAKPGTSVKLSCKASGYTFTSYWMHWVKQAPGQGLEWIGYIKPSSGYTKYNQKFKDKVTLTADKSTSTAYMELSSLRSEDTAVYYCARDYYGSSSWFAYWGQGTLVTVSS VL: EIVMTQSPATLSTSPGERATLSCRASQSVSSNLAWYQQKPGQAPRALIYSASYRYSGVPARFSGSGSGTDFTLTISSVEPEDFAVYYCQQYNSYPYMYTFGQGTKLEIK",266
8,"Ab418 (antibody, V domains shown, humanized) VH: EVQLVQSGAEVKKPGASVKLSCKASGYTFTSYWMHWVRQAPGQGLEWIGYIKPSSGYTKYAQKLQGRVTLTADKSTSTAYMELRSLRSDDTAVYYCARDYYGSSSWFAYWGQGTLVTVSS VL: EIVMTQSQATLSTSPGERATLSCKASQNVGTNVAWYQQKPGQAPRALIYSASYRYSGVPARFSGSGSGTDFTLTISSVEPEDFAVYYCQQYNSYPYMYTFGQGTKLEIK",131
9,"Ab411 (antibody, V domains shown, humanized) VH: QVQLVQSGAEVAKPGTSVKLSCKASGYTFTSYWMHWVKQAPGQGLEWIGYIKPSSGYTKYNQKFKDKVTLTADKSTSTAYMELSSLRSEDTAVYYCARDYYGSSSWFAYWGQGTLVTVSS VL: EIVMTQSQATLSTSPGERATLSCKASQNVGTNVAWYQQKPGQAPRALIYSASYRYSGVPARFSGSGSGTDFTLTISSVEPEDFAVYYCQQYNSYPYMYTFGQGTKLEIK",143
10,"Ab422 (antibody, V domains shown, humanized) VH: EVQLVQSGAEVKKPGSSVKLSCKASGYTFSSYWMHWVKQAPGQGLEWIGYIKPSSGYTKYAQKFQGRVTLTADKSTSTAYMELSSLRSEDTAVYYCARDYYGSSSWFAYWGQGTLVTVSS VL: EIVMTQSQATLSTSPGERATLSCKASQNVGTNVAWYQQKPGQAPRALIYSASYRYSGVPARFSGSGSGTDFTLTISSVEPEDFAVYYCQQYNSYPYMYTFGQGTKLEIK",173
11,"Ab407 (antibody, V domains shown, humanized) VH: QVQLVQSGAEVAKPGSSVKLSCKASGYTFTSYWMHWVKQAPGQGLEWIGYIKPSSGYTKYNQKFKDKATLTADKSTSTAYMELSSLRSEDTAVYYCARDYYGSSSWFAYWGQGTLVTVSS VL: EIVMTQSQATMSTSVGERATLSCKASQNVGTNVAWYQQKPGQSPKALIYSASYRYSGVPARFSGSGSGTDFTLTISSVEPEDFAVYYCQQYNSYPYMYTFGQGTKLEIK",109
12,"Ab404 (antibody, V domains shown, humanized) VH: EVQLVQSGAEVKKPGASVKLSCKASGYTFTSYWMHWVRQAPGQGLEWIGYIKPSSGYTKYNQKFKDKATLTADKSTSTAYMELRSLRSDDTAVYYCARDYYGSSSWFAYWGQGTLVTVSS VL: EIVMTQSQATMSTSVGERATLSCKASQNVGTNVAWYQQKPGQSPKALIYSASYRYSGVPARFSGSGSGTDFTLTISSVEPEDFAVYYCQQYNSYPYMYTFGQGTKLEIK",132

# Further binders by falling Kd, results first:
row,Kd [nM],Binder
1,1660,"Ab413 (antibody, V domains shown, humanized) VH: EVQLVQSGAEVKKPGTSVKLSCKASGYTFTSSAMQWVKQAPGQGLEWIGYIKPSSGYTKYNQKFKDKATLTADKSTSTAYMELSSLRSEDTAVYYCARDYYGSSSWFAYWGQGTLVTVSS VL: EIVMTQSQATLSTSPGERATLSCKASQNVGTNVAWYQQKPGQAPRALIYSASYRYSGVPARFSGSGSGTDFTLTISSVEPEDFAVYYCQQYNSYPYMYTFGQGTKLEIK"
2,1060,"Ab401 (antibody, V domains shown, humanized) VH: EVQLVQSGAEVKKPGTSVKLSCKASGYTFTSSAMQWVKQAPGQGLEWIGYIKPSSGYTKYNQKFKDKATLTADKSTSTAYMELSSLRSEDTAVYYCARDYYGSSSWFAYWGQGTLVTVSS VL: EIVMTQSQATMSTSVGERATLSCKASQNVGTNVAWYQQKPGQSPKALIYSASYRYSGVPARFSGSGSGTDFTLTISSVEPEDFAVYYCQQYNSYPYMYTFGQGTKLEIK"
3,195,"Ab405 (antibody, V domains shown, humanized) VH: EVQLVQSGAEVAKPGASVKLSCKASGYTFTSYWMHWVRQAPGQGLEWIGYIKPSSGYTKYNQKFKDKATLTADKSTSTAYMELRSLRSDDTAVYYCARDYYGSSSWFAYWGQGTLVTVSS VL: EIVMTQSQATMSTSVGERATLSCKASQNVGTNVAWYQQKPGQSPKALIYSASYRYSGVPARFSGSGSGTDFTLTISSVEPEDFAVYYCQQYNSYPYMYTFGQGTKLEIK"
4,180,"Ab416 (antibody, V domains shown, humanized) VH: EVQLVQSGAEVKKPGASVKLSCKASGYTFTSYWMHWVRQAPGQGLEWIGYIKPSSGYTKYNQKFKDKATLTADKSTSTAYMELRSLRSDDTAVYYCARDYYGSSSWFAYWGQGTLVTVSS VL: EIVMTQSQATLSTSPGERATLSCKASQNVGTNVAWYQQKPGQAPRALIYSASYRYSGVPARFSGSGSGTDFTLTISSVEPEDFAVYYCQQYNSYPYMYTFGQGTKLEIK"
5,170,"Ab417 (antibody, V domains shown, humanized) VH: EVQLVQSGAEVAKPGASVKLSCKASGYTFTSYWMHWVRQAPGQGLEWIGYIKPSSGYTKYNQKFKDKATLTADKSTSTAYMELRSLRSDDTAVYYCARDYYGSSSWFAYWGQGTLVTVSS VL: EIVMTQSQATLSTSPGERATLSCKASQNVGTNVAWYQQKPGQAPRALIYSASYRYSGVPARFSGSGSGTDFTLTISSVEPEDFAVYYCQQYNSYPYMYTFGQGTKLEIK"
6,144,"Ab408 (antibody, V domains shown, humanized) VH: EVQLVQSGAEVKKPGSSVKLSCKASGYTFTSYWMHWVRQAPGQGLEWIGYIKPSSGYTKYNQKFKDKATLTADKSTSTAYMELSSLRSEDTAVYYCARDYYGSSSWFAYWGQGTLVTVSS VL: EIVMTQSQATMSTSVGERATLSCKASQNVGTNVAWYQQKPGQSPKALIYSASYRYSGVPARFSGSGSGTDFTLTISSVEPEDFAVYYCQQYNSYPYMYTFGQGTKLEIK"
7,144,"Ab410 (antibody, V domains shown, humanized) VH: EVQLVQSGAEVKKPGSSVKLSCKASGYTFSSYWMHWVKQAPGQGLEWIGYIKPSSGYTKYAQKFQGRVTLTADKSTSTAYMELSSLRSEDTAVYYCARDYYGSSSWFAYWGQGTLVTVSS VL: EIVMTQSQATMSTSVGERATLSCKASQNVGTNVAWYQQKPGQSPKALIYSASYRYSGVPARFSGSGSGTDFTLTISSVEPEDFAVYYCQQYNSYPYMYTFGQGTKLEIK"
8,142,"Ab414 (antibody, V domains shown, humanized) VH: EVQLVQSGAEVKKPGTSVKLSCKASGYTFTSYWMHWVRQARGQRLEWIGYIKPSSGYTKYAQKFQERVTLTADKSTSTAYMELSSLRSEDTAVYYCARDYYGSSSWFAYWGQGTLVTVSS VL: EIVMTQSQATLSTSPGERATLSCKASQNVGTNVAWYQQKPGQAPRALIYSASYRYSGVPARFSGSGSGTDFTLTISSVEPEDFAVYYCQQYNSYPYMYTFGQGTKLEIK"
9,128,"Ab415 (antibody, V domains shown, humanized) VH: QVQLVQSGAEVAKPGASVKLSCKASGYTFTSYWMHWVKQAPGQGLEWIGYIKPSSGYTKYNQKFKDKATLTADKSTSTAYMELRSLRSDDTAVYYCARDYYGSSSWFAYWGQGTLVTVSS VL: EIVMTQSQATLSTSPGERATLSCKASQNVGTNVAWYQQKPGQAPRALIYSASYRYSGVPARFSGSGSGTDFTLTISSVEPEDFAVYYCQQYNSYPYMYTFGQGTKLEIK"
